Source: the supplement of paper PMC12042874
± gives the uncertainty stated by the source.

Test: amyloid nucleation score (Sup35N fusion, yeast selection) (log enrichment); library NNK2; higher = more nucleation; inactive = no reads after selection
Method in brief: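 After 24 hours of induction with 100 μM copper sulfate, psi-negative yeast expressing peptides of 20 random codons fused to Sup35N were grown for 7 days at 30°C on medium lacking adenine and uracil. Input and output plasmid inserts were sequenced with Illumina, and sequences with under 100 input reads were discarded. Scores for nucleation are the DiMSum log enrichment of output over input reads, centred on the mode score of non-aggregating sequences.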

Substance	amyloid nucleation score
AIFYDLMVNQRFVFTSFLWL	-0.14 ± 0.74
AINGHDRGLSKLGGRAGESD	0.589 ± 0.42
AISCSVTWNVTMTSGLTPLC	1.17 ± 0.37
AISSEGELLAVDFWNSNLDP	-0.509 ± 0.23
AISSRLILLTPRAKSFVPSD	-0.247 ± 0.65
AKDEERISNVVGLDCDLGVL	0.057 ± 0.42
AKVVHTVWACIAS	-0.943 ± 0.78
AKYIPHAVLKASPTVGIILV	-0.54 ± 1.1
ALCQYISSSYMWYSVMCELI	inactive
ALCYWRNSPSVGRRQWRRQC	6.654 ± 0.057
ALDHSV	-0.271 ± 1
ALDWPLICA	-0.07 ± 0.39
ALECGRTMEINLTGR	0.942 ± 0.37
ALGHR	-0.079 ± 0.45
ALGINFSWACG	4.998 ± 0.043
ALHFPVIQHFW	5.22 ± 0.073
ALLTVFFNLVVVWDVKAVTP	-0.159 ± 1
ALLYYTAVVDKNYTSDLSHD	-0.899 ± 0.37
ALNAG	1.11 ± 0.2
ALPITQNCC	-1.07 ± 0.44
ALSSKMMGYDRF	-0.494 ± 0.64
ANAKIYGNMEALETGMRL	0.553 ± 0.57
ANDPCGVKASRLYVLVSPRV	0.707 ± 0.19
ANDSSNYEYVILMRPNVIEV	-0.14 ± 0.49
ANERCGTLTMRSEAYHVRTW	0.808 ± 0.28

Substance	amyloid nucleation score
ANFCVDCIDIAH	0.787 ± 0.45
ANKLLESCFSQCLRSALFEW	-0.369 ± 0.79
ANLWNEGFPLNGLHDNGIDQ	-0.379 ± 0.49
ANMTVVGWFCIRR	6.146 ± 0.058
ANNFCRINESDWVRSVILPS	0.042 ± 1.1
ANPFKSSDATVLVDVRGMGS	3.09 ± 0.068
ANRFSALFGPLLRVAPPKNS	1.18 ± 0.24
APADH	2.52 ± 0.15
APENGFRFWLVNHNAVHMIL	-0.21 ± 0.79
APRCALQLGS	1.27 ± 0.28
APWYIL	0.225 ± 0.36
AQLVGVCFRRFCQLSTSLCY	-1.18 ± 0.64
AQNKNWQSFRMFPVVLAMVG	0.178 ± 0.77
AQVEFLYNSLVHYFSIDNTG	inactive
ARDCYEDDHKSKSARTVEHT	0.232 ± 0.31
ARFSVILNSIYRFSYLCRRL	inactive
ARKKALGGNNLEVVLFLFSC	4.93 ± 0.098
ARLAPRSLPCKWSPVAEKQR	-0.098 ± 0.79
ARLRC	0.001 ± 0.28
ARMIVCPTVFAIPWYNNSFI	-1.47 ± 0.78
ARPVDMHTQTYALL	-0.284 ± 1.1
ARRCSFWYIISVQRF	inactive
ARRIVMWVYECGTYCWRRTT	0.216 ± 0.43
ARSTAFMPEPSFLV	0.054 ± 0.56
ARTICTFRHMSGIGAMGLDC	0.289 ± 0.8

Substance	amyloid nucleation score
ARVCPCETTSTTVVA	1.23 ± 0.48
ASAPEYHQVKIYIFQFTPRA	2.02 ± 0.094
ASCMS	-0.056 ± 0.32
ASCWTVGQLTHVSVSMWGFI	0.943 ± 0.53
ASGEVMYVNHYVFPQAFTDE	inactive
ASLALYRITRVGICYIRRLR	-0.839 ± 0.78
ASMLWLLLDELLKWNDGVNN	2.04 ± 0.099
ASQAHSEIMLVVTMNALHQP	7.57 ± 0.076
ASRWHLIAESLSLSAVLNSF	inactive
ASVLWHFLPSGGARFVCSER	0.538 ± 0.5
ATSTITNYGLPNRPCVSYMF	-0.043 ± 0.32
ATTVNK	5.76 ± 0.061
ATTYAYTGAQLTWFRWMVVQ	0.832 ± 0.31
ATVYMLHALVSDGCQLGD	0.399 ± 0.31
ATYFWMQSVP	0.903 ± 0.74
AVINPPKHVVCCFD	-0.189 ± 0.23
AVLCWLCLLGGLNINFEECG	4.11 ± 0.045
AVRLSEV	0.421 ± 0.38
AVTIMCPAGLTMANSLVFKQ	5.18 ± 0.07
AVVLLLRTAGVVIGHLVLRH	-0.016 ± 0.29
AVWVRLTFDYWGRCTILGTV	inactive
AVYFYRALDVVMCAFVRKGE	6.01 ± 0.068
AVYSGHSYVKMSWVSGGRYW	0.747 ± 0.43
AWENYYSGLVNLLAASACIV	-0.163 ± 0.79
AWFVYYVYRMFLNVSTSYWK	0.074 ± 0.74

Substance	amyloid nucleation score
AYGQKNVSSRSLTFV	3.41 ± 0.15
AYSVRLDLSCDQRCSF	4.366 ± 0.041
AYYYTVLYYSFNMFRFVYTW	inactive
CADAITRHAGTFVAGWSW	0.865 ± 0.17
CAGGFGLKPAFVYEFWCKSI	-1.17 ± 1
CAGYMRRHFSAAVTWTWAEG	1.22 ± 0.69
CAMVKFY	-1.3 ± 0.62
CANIMMKSKVYKFNERRSVK	-0.873 ± 0.62
CANYSDARITFTYNSYKICV	1.09 ± 0.2
CARIWLRTWGKIRA	0.092 ± 1.1
CAVRF	0.498 ± 0.64
CAVRWVGVS	1.12 ± 0.23
CAVVKAILSCMFTLSSSCLH	0.441 ± 0.49
CCELAPWFFTI	0.068 ± 0.32
CCPEHRNRAGNNDFWSARTQ	0.392 ± 0.57
CCSISTDLCDKYFVTFCLLS	inactive
CCWVDLGLKRMYESLFDR	4.14 ± 0.051
CDKDMRILHMYGLEASEGVY	0.526 ± 0.26
CDSARFEGNVEAAR	-0.134 ± 0.34
CEALQSW	0.699 ± 0.34
CEIHYIIRQRSPVLSNRVQR	inactive
CERLDCSQKDSGCYWRRHGI	0.471 ± 0.62
CESWMGAKTITLELTGGDSE	0.664 ± 0.38
CETLSGMRGLCRKKTDVPDI	-0.036 ± 0.63
CFCKKCWVDSLLRRRVNNFH	-0.737 ± 1.1

Substance	amyloid nucleation score
CFCLWGLDDLVLGLGSTMRF	3.16 ± 0.057
CFKMIFDQGSPKMRMHHIGV	0.234 ± 0.54
CFLDGYWPGGELMKIGDYAL	0.248 ± 0.28
CFLESGSLMLYEV	-0.081 ± 1.1
CFNGLDLLILSTKMVSLLWY	-0.492 ± 1.1
CFQSRYLTRSGLKVWHTKGD	0.631 ± 0.37
CFTPFMLFCKDEV	-1.12 ± 0.55
CFTSWMRPRKSYLTDNRCIN	-0.55 ± 0.79
CFYSNWKQGYDICHVSGDRF	-0.956 ± 0.78
CGDQSVFERYETRRNLGL	0.21 ± 0.63
CGKLSLLNQVWIVSQPMPGQ	7.57 ± 0.064
CGKYSS	7.602 ± 0.041
CGLCMEGYSHEMIDRLSSIS	0.227 ± 0.56
CGLVAVNDYLGVRVGLFHIC	-1.01 ± 1.1
CGMCKF	-0.487 ± 0.29
CGSSMEYVGPLVYSAGAAEV	-0.097 ± 1.1
CGTLINADRPAWH	-0.593 ± 0.35
CGVIKHPLSGYYKRASMLCN	-1.52 ± 1.1
CGVMKNYDESKTYGLGLG	3.51 ± 0.1
CHACLWRETRVRTCVSAEHH	1.65 ± 0.35
CHKVWSKEDWATVWSVGGLV	-0.02 ± 1.1
CHRLDWINYLCGSHKAIMIV	-0.472 ± 0.5
CHRNFITCLYAMYSELVLVL	0.648 ± 0.54
CHSLGVRF	3.17 ± 0.093
CINRVRG	-0.398 ± 0.76

Substance	amyloid nucleation score
CIPRRGY	0.713 ± 0.74
CIRFVVMNIYGAASDKSMVG	7.422 ± 0.036
CIRMLSVIYHCPL	4.85 ± 0.07
CIRMNRISLGNSICWCAPNM	7.922 ± 0.047
CIRVGSQNVMFPIDSEPSDL	0.482 ± 0.46
CISMDLIVLNSFMGKPLPPP	5.39 ± 0.057
CITFS	-0.817 ± 0.46
CKLWECTLLVGWGNLLRVRG	-0.276 ± 0.76
CKMYVET	0.23 ± 0.38
CKPAVPMLN	2.49 ± 0.076
CKWEFKWPYWGDYLVFMCK	-0.679 ± 1.1
CKYVYFRPTRASSSWHVIFL	2.93 ± 0.076
CLAASSGVLYNEVQSYNTLV	inactive
CLCGTFVSVSPIGYRGQWGG	-0.467 ± 0.76
CLFVQSRIDYALNNLTVC	-0.755 ± 0.48
CLFWG	2.85 ± 0.11
CLKSISTRNR	-0.932 ± 0.76
CLLGMYIVTDTARMTVCVGL	0.444 ± 0.49
CLNWRSLSS	3.34 ± 0.067
CLRVVCLRGLFYYANSACQV	-0.199 ± 0.54
CLRYGISRWLRLFRINNVVE	0.046 ± 0.34
CLTSFEES	-0.155 ± 0.65
CLTTGNLWEVTAGIESVRWI	0.202 ± 0.5
CLYARHFVNCNGYATGTLMD	-0.163 ± 0.61
CLYYEPVSL	-0.263 ± 1.1

Substance	amyloid nucleation score
CMEKFTLELTVIIRHSNQLG	0.225 ± 0.31
CMFVILMYLHQGRKLNAVPS	-1.02 ± 1.1
CMFVIVKVCIVHGHIVSIAS	inactive
CMSTDTTLVATMMLQTESA	0.441 ± 0.23
CMVMGNERM	-0.011 ± 0.22
CMVRLKPDFITALRLSLRGR	inactive
CNGRVKAYVSQNYVSEYGVL	-0.1 ± 0.2
CNGYRKVHCLMTMSRWTYGR	1.08 ± 0.1
CNGYTKRRYTRYSYKWFAVA	-0.15 ± 0.45
CNHIRSKVKVVVCTGHCAVF	4.62 ± 0.11
CNMGLRYTSYLI	-0.212 ± 0.34
CNSHM	2.9 ± 0.072
CPCNGTNSLRLAYGYTGNNS	inactive
CPFSYEPNFPLIGRGNFAIW	-0.987 ± 1
CPIRMLSKNGCSTHSFNMAW	0.241 ± 0.8
CPLPIVSFKTLINLNMMYKS	-0.269 ± 0.43
CPNLNTFTLFPELGNLYLHR	0.329 ± 0.8
CQLLMFGSMYVHSYERGTYW	2.67 ± 0.064
CQMYWYFWPGVTRFAR	8.633 ± 0.03
CQTHPYYVICFQAVKKCWES	-0.899 ± 0.56
CRCVR	3.38 ± 0.077
